Experimental findings from PMC2764420 are described below.

The target in test [1] is Tn10 transposase. The test can be described thus: cross-linking.
The target in test [2] is Tn10 transposase. The test can be described thus: cross-linking. The source holds these as a separate data set.
The target of test [3] is pre-unfolded Tn10 transpososome. The test can be described thus: native gel or EMSA. In general terms: A gel shift assay detects complexes by their altered migration in electrophoresis.
For test [4], the target named is folded Tn10 transpososome (UniProt P0A6X7). The test can be described thus: native gel or EMSA.

Like-named read-outs stand apart in the source and are kept apart here.

UniProt P0A6X7, sequence (P0A6X7 whole entry, looked up): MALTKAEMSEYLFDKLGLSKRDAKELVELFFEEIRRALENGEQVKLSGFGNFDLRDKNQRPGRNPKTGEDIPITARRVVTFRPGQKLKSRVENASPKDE

Tn10 transposase (enzyme): the stoichiometry N in the test with Tn10 transposase [1] and in the test with Tn10 transposase [2] was 2 each time.

B1: H-NS (histone-like nucleoid-structuring protein), wild type (natural protein)
chain: MSEALKILNNIRTLRAQARECTLETLEEMLEKLEVVVNERREEESAAAAEVEERTRKLQQYREMLIADGIDPNELLNSLAAVKSGTKAKRAQRPAKYSYVDENGETKTWTGQGRTPAVIKKAMDEQGKSLDDFLIKQ
Turning to B1, in test [3], the Kd worked out at 0.3 nM and the percent of transpososome converted to an H-NS-bound form was more than 95%. In test [4], this molecule had a percent of transpososome converted to an H-NS form at 6 nM H-NS of 5%.

In general, stoichiometry N refers to the number of molecules, sites or subunits per partner or assembly. Broadly, the Kd is the constant that tells how readily two partners part at equilibrium. A higher Kd goes with a looser complex.
